Experimental data taken from the supplement of paper PMC7125110.
± gives the standard error. For some of these results: Fewer inactive variants are shown than the library holds.

B1: glmS ribozyme (parent)
chain: AUAAAAGCGCCAGAACUACAGAAAUGUAGUUGACGAGGAGGAGGUUUAUCGAAUUUUCGGCGGAUGCCUCCAAA

What was measured:
Settings in all cases: with glucosamine-6-phosphate
glucosamine-6-phosphate [1] = variants of: B1; experiment: kcat; higher = faster cleavage; RNA array
Summary of the method: (§1)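 Tiles of sequenced MiSeq chips were imaged over ~14 h at 37 °C. On them, barcoded ribozyme variants had been transcribed in situ by E. coli RNA polymerase and were tracked via a hybridised Cy3 probe while glucosamine-6-phosphate (40 μM to 10 mM) in HEPES/KCl/Mg(OAc)2 buffer flowed in. Per-tile medians, normalised to baseline and to non-cleaving reference variants, were fit to one- or two-exponential decays for kobs, and weighted Michaelis–Menten fits gave kcat and KM.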

glucosamine-6-phosphate [2] = variants of: B1; experiment: KM; higher = weaker cofactor use; RNA array
Summary of the method: as §1

glucosamine-6-phosphate [3] = variants of: B1; experiment: self-cleavage kobs at 160 uM GlcN6P; higher = faster cleavage; RNA array
Summary of the method: as §1

glucosamine-6-phosphate [4] = variants of: B1; experiment: self-cleavage kobs at 640 uM GlcN6P; higher = faster cleavage; RNA array
Summary of the method: as §1

glucosamine-6-phosphate [5] = variants of: B1; experiment: self-cleavage kobs at 2500 uM GlcN6P; higher = faster cleavage; RNA array
Summary of the method: as §1

glucosamine-6-phosphate [6] = variants of: B1; experiment: self-cleavage kobs at 10000 uM GlcN6P; higher = faster cleavage; RNA array
Summary of the method: as §1

glucosamine-6-phosphate [7] = variants of: B1; experiment: self-cleavage kobs at 40 uM GlcN6P; higher = faster cleavage; RNA array
Summary of the method: as §1

Variant	kcat (glucosamine-6-phosphate [1]) [s⁻¹]	KM (glucosamine-6-phosphate [2]) [µM]	self-cleavage kobs at 160 uM GlcN6P (glucosamine-6-phosphate [3]) [s⁻¹]	self-cleavage kobs at 640 uM GlcN6P (glucosamine-6-phosphate [4]) [s⁻¹]	self-cleavage kobs at 2500 uM GlcN6P (glucosamine-6-phosphate [5]) [s⁻¹]	self-cleavage kobs at 10000 uM GlcN6P (glucosamine-6-phosphate [6]) [s⁻¹]	self-cleavage kobs at 40 uM GlcN6P (glucosamine-6-phosphate [7]) [s⁻¹]
AUAAAAGCGCCAGAACUACAGAAAUGUAGUUGACGAGGAGGAGGUUUAGCGAAUGUUCGGCGGAUGCCUCCAAA [U49G U55G]	0.000836 ± 7.3e-05	1400 ± 250	8.7e-05 ± 1.8e-05	0.000247 ± 5e-05	0.000582 ± 6.3e-05	0.000687 ± 9.4e-05	
AUAAAAGCGCCAGAACUACAGAAAUGUAGUUGACGAGGAGGAGGUUUAUCGAAUUUUCUGAGGAUGACUCCAAA [G59U C61A C67A]	1.63e-05 ± 4.2e-06						
AUAAAAGCGCCACAACUACAGAAAUGUAGUUGACGAGGAGGAGGGUUAUCGAAUUUUCGGCGGAUGCCUCCAAA [G13C U45G]	3.74e-05 ± 3.6e-06					3.22e-05 ± 1.2e-05	< 1e-05
AUAAAAGCGCCGGAACUACAGAAAUGUAGUUGACGAGGAGGAGGAUUAUCGAAUUUUCGGCGGAUGCCUCCAAA [A12G U45A]	0.00242 ± 0.00064	3500 ± 1300	0.000103 ± 1.6e-05	0.00041 ± 5.3e-05	0.000811 ± 0.00014	0.00207 ± 0.00031	4.21e-05 ± 1.5e-05
AUAAAAGCGCCAGAACUACAGAAAUGUAGUUGACGAGGCGGAGGUUUCUCGAAUUUUCGGCGGAUGCCUCCAAA [A39C A48C]	7.62e-05 ± 2.8e-06	3440 ± 350			3.1e-05 ± 1.1e-05	5.69e-05 ± 9.4e-06	
AUAAAAGCGCCAGAACUACAGAAAUGUAGUUGACGAGGAGGAGGUUUAUCGAAGUUGCGGCGGAUGCCUCCAAA [U54G U57G]	3.71e-05 ± 3.7e-06	1500 ± 710				3.21e-05 ± 1.2e-05	
AUAAAAGCGCCAGAACUACAGAAAUGUAGUUGACGAGGAGGAGGUUUAUCGAAUUUUCGGCGGAGGCUUCCAAA [U65G C68U]	0.00167 ± 0.00057		0.000159 ± 3.2e-05	0.000304 ± 4.1e-05	0.000758 ± 0.00013	0.00155 ± 0.00018	5.31e-05 ± 8.4e-06
AUAAAAGCGCCAGAACUACAGAAAUGUAGUUGACGAGGAGCAGGAUUAUCGAAUUUUCGGCGGAUGCCUCCAAA [G41C U45A]	0.000121 ± 5.5e-06	1240 ± 160		4.19e-05 ± 7.6e-06		0.000108 ± 1.1e-05	
AUAAAAGCGCCAGAACUACAGAAAUGUAGUAGACGAGGAGGAGGUUUAUCGAAUUUUCGGCGGAAGCCUCCAAA [U31A U65A]	0.00266 ± 0.00015	3820 ± 350	9.46e-05 ± 3.5e-05	0.000399 ± 5.4e-05	0.00107 ± 0.00022	0.00191 ± 0.00022	2.41e-05 ± 1.1e-05
AUAAAAGCGCCAGAACUACAGAAAUGUAGUUGACGAGGAGGAGGAUUAUCGAAUUUUCGGCGGAUUCCUCCAAA [U45A G66U]	0.00194 ± 0.00019	2090 ± 330	0.000117 ± 3.4e-05	0.000508 ± 0.0001	0.00104 ± 0.00022	0.0016 ± 0.00026	4.15e-05 ± 1.3e-05
AUAAAAGCGCCAGAACUACAGAAAUGUAGUUGACGAGGAGGAGGUUUAUCGAAUGUUCGGCGGAAGCCUCCAAA [U55G U65A]	0.00461 ± 0.00094	3100 ± 880	0.000296 ± 4.5e-05	0.000695 ± 0.00011	0.00174 ± 0.00025	0.00388 ± 0.00043	6.02e-05 ± 7.6e-06
AUAAAAGCGCCAGAACUACAGAAAUGUAGUUGACGAGGAGGAGGUUUGUCGAAUGUUCGGCGGAUGCCUCCAAA [A48G U55G]	9.18e-05 ± 6.4e-06	759 ± 210		4.19e-05 ± 7.6e-06	0.000108 ± 3.8e-05	8.43e-05 ± 7.8e-06	< 1e-05
AUAAAAGCGCCAGAUCUACAGAAAUGUAGUUGACGAGGAGGAGGUUUAUCGAAUUUUCGGCGGAAGCCUCCAAA [A15U U65A]	0.000377 ± 6.3e-05	1080 ± 410	6.26e-05 ± 2.2e-05	0.000146 ± 2.3e-05	0.00021 ± 4.1e-05	0.00039 ± 5.6e-05	
AUAAAAGCGCCAGAUCUACAGAAAUGUAGUUGACGAGGAGGAGGUUUAUCGAGUUUUCGGCGGAUGCCUCCAAA [A15U A53G]	0.00765 ± 0.0013	1990 ± 520	0.000531 ± 6.8e-05	0.0015 ± 0.0002	0.00373 ± 0.00055	0.00681 ± 0.00053	0.00019 ± 1.8e-05
AUAAAAGCGCAAGAACUACAGAAAUGUAGUUGACGAGGAGGAGGUUUAUCGAAUUUUCGGCGGAUGCCUACAAA [C11A C70A]	2.97e-05 ± 1.1e-05			4.96e-05 ± 1.9e-05			
